# Patent publication US8299032B2, “Self-assembling peptide and gel produced from the same” (Menicon Co., Ltd., priority 2005, dated 2012)
# What was measured:
# Format in all cases: physicochemical
# [1] = Confirmation of beta-sheet structure formation by circular dichroism measurement; details: 3×10^−3 M peptide in 0.1 M Tris-HCl (pH 7.5)
# Procedure: The formation of each of the beta (β)-sheet structures of Peptide Nos. 1 to 9 and 12 synthesized in Production Examples 1 and 2 mentioned above was confirmed in accordance with circular dichroism measurement method. Concretely, each of the peptides was dissolved in 0.1 M Tris-HCl (pH 7.5) to prepare a 3×10^−3 M peptide solution. The resulting peptide solution was filled into a quartz cell having an optical path length of 0.5 mm (manufactured by JASCO, trade name: 110J cylindrical cell, volume: 0.04 mL), and the quartz cell was set in trade name J-820K Spectropolarimeter (manufactured by JASCO), and the molar ellipticities at 195 to 260 nm for the peptide solutions were determined in accordance with the circular dichroism measurement method.
# [2] = Visible light transmittance of peptide gel (380 to 780 nm); details: for Visible Light Transmittance (average, 380 to 780 nm): gel of 0.5% by weight peptide in 0.1 M Tris-HCl (pH 7.5), optical path length 10 mm; for decreasing ratio of visible light transmittance: after 2 months at room temperature versus before storage; for visible light transmittance (average) after standing: gel allowed to stand at room temperature for 2 months; for long-term stability of gel (no white turbidity): room temperature, 2 months
# Text: In a case where the gel of the present invention is used, for example, as a scaffold for a three-dimensional culture of the cells, it is desired that the used concentration of the self-assembling peptide of the present invention upon gel formation in a medium for cell culture is preferably 0.3% by weight or more, and more preferably 0.5% by weight or more, from the viewpoint of easiness in gel formation, and that the used concentration of the peptide is preferably 5% by weight or less, and more preferably 2% by weight or less, from the viewpoint of easy miscibility with the cells. In addition, in such a case, it is preferable that the gel is transparent, from the viewpoint of easiness in cell observation with a fluorescent microscope or the like. For example, in a gel containing 0.5% by weight of a self-assembling peptide, it is desired that the visible light transmittance which is determined in terms of absorbance at 380 to 780 nm in a cell having an optical path of 10 mm is at least 50%/cm, and it is desired that the visible light transmittance is preferably 70%/cm or more, and more preferably 90% 1 cm or more. Further, it is desired that the visible light transmittance of the gel after allowing it to stand at room temperature for a long period of time, for example, 2 months, is preferably 50%/cm or more, more preferably 70%/cm or more, and even more preferably 90%/cm or more, from the viewpoint of long-term stability of the gel, and that the decreasing ratio (%) of the visible light transmittance (100−(visible light transmittance after storage/visible light transmittance before storage×100)) is preferably 30% or less, more preferably 20% or less, and even more preferably 10% or less. The transparency of the gel can be determined with UV/VIS measurement apparatus as described in Examples set forth below.
# Peptide Nos. 1 to 9 synthesized in Production Examples 1 and 2 were dissolved in 0.1 M Tris-HCl (pH 7.5), to prepare a gel composed of a 0.5% by weight peptide solution. The visible light transmittance of the prepared gel within the range of from 380 to 780 nm was determined using a cell having an optical path length of 10 mm and trade name V-550 UV/VIS Spectrometer (manufactured by JASCO).
# Therefore, it could be seen that each of Peptide Nos. 1 to 9 mentioned above formed a transparent gel. In addition, of the above gels, the gel comprising each of Peptide Nos. 1, 4, 6, or 7 was allowed to stand at room temperature for 2 months, and the visible light transmittance was determined in the same manner as above. As a result, an average thereof was respectively 88, 87, 91, or 93%/cm, and the decreasing ratio was respectively 9.3, 5.4, 6.2, or 4.1%. In other words, the gel after 2 months passed from the preparation also maintained high visible light transmittance.
# [3] = Dynamic viscoelasticity of peptide aqueous solution (storage modulus G′, loss modulus G″); details: 0.5 wt %, acidic aqueous solution (pH 3.5)
# Text: In addition, the term “gel” as used herein refers to a viscoelastic substance having both viscous property and elastic property. Concretely, the gel refers to a substance satisfying the formula G′>G″, in a case where the gel is subjected to dynamic viscoelasticity measurement to determine a storage elastic modulus G′ and a loss elastic modulus G″.
# The dynamic viscoelasticity can be determined with a dynamic viscoelasticity measurement apparatus as described in Examples set forth below. Concretely, the dynamic viscoelasticity can be determined by placing a sample on an iron plate, compressing the sample with an iron cone, and monitoring a stress applied to a motor rotating the iron cone when the cone is rotated.
# The storage elastic modulus G′ and the loss elastic modulus G″ of a 0.5% by weight peptide (Peptide Nos. 1 to 10 mentioned above)-containing aqueous solution were determined with an instrument under the trade name of AR1000 (manufactured by TA Instruments Japan). […] Next, the 0.5% by weight peptide-containing aqueous solution was compressed, and a stress applied to a motor was monitored when the iron cone was rotated, while varying the frequency of the cone within the range of 0.1 to 10 rad/sec.
# [4] = Gel formation, test tube placed up-side-down; design: key to Gel Formation: Excellent: those in which the contents did not drop off were evaluated as the gel formation being “excellent”; Poor: those in which the contents dropped off were evaluated as being “poor.”; details: 37° C. for 24 hours; for Gel Formation: peptide 0.5% by weight; for gel formation in neutral aqueous solution (summary of Table 11): neutral aqueous solutions, 0.5% by weight
# Procedure: Peptide Nos. 1, 2, 4, 5, 6, 10 and 11 synthesized in Production Examples 1 and 2 were dissolved in each of aqueous solutions listed in Table 11. A 1.5 mL test tube was charged with 1 mL of the resulting peptide-containing aqueous solution. Next, the test tube was allowed to stand at 37° C. for 24 hours.
Sequence,"Visible Light Transmittance (average, 380 to 780 nm) [2] [%]",Gel Formation ([4]; PBS pH 7.4),gel formation in neutral aqueous solution (summary of Table 11) [4],Gel Formation ([4]; Tris-HCl 0.1 M pH 7.5),decreasing ratio of visible light transmittance [2] [%],visible light transmittance (average) after standing [2] [%/cm],long-term stability of gel (no white turbidity) [2],other results
"HKHQHDHKHQHDHKHQHD (Synthetic peptide which is not a peptide of the invention) [Peptide No. 12, peptide not having a nonpolar amino acid residue, not a peptide of the present invention]",–,–,–,–,–,–,–,formation of beta (β)-sheet structure in aqueous solution [1]: did not form a beta(β)-sheet structure
"KASAKAEAKASAKAEA (Synthetic self-assembling peptide of the invention) [Peptide No. 8, self-assembling peptide of the present invention]",94,–,–,–,–,–,–,–
"RAAARADARAAARADA (Synthetic self-assembling peptide of the invention) [Peptide No. 3, self-assembling peptide of the present invention]",91,–,–,–,–,–,–,–
"RADARADARADARADA [Peptide No. 10, reference compound]",–,Poor,did not form into gel in a neutral aqueous solution,–,–,–,–,gel formation by dynamic viscoelasticity [3]: formed the gel in an acidic aqueous solution
"RADARASARASARADA (Synthetic self-assembling peptide of the invention) [Peptide No. 5, self-assembling peptide of the present invention]",78,–,formed into gel in various neutral aqueous solutions,Excellent,–,–,–,–
"RANARADARANARADA (Synthetic self-assembling peptide of the invention) [Peptide No. 2, self-assembling peptide of the present invention]",77,–,formed into gel in various neutral aqueous solutions,Excellent,–,–,–,–
"RASARADARADARASA (Synthetic self-assembling peptide of the invention) [Peptide No. 4, self-assembling peptide of the present invention]",92,Excellent,formed into gel in various neutral aqueous solutions,Excellent,5.4,87,stable for a long period of time without becoming white turbid,Gel Formation ([4]; Tris-HCl 0.05 M pH 7.5): Excellent; Gel Formation ([4]; Tris-HCl 0.2 M pH 7.5): Excellent; Gel Formation ([4]; Tris-HCl 0.4 M pH 7.5): Excellent; Gel Formation ([4]; Tris-HCl 0.6 M pH 7.5): Excellent; Gel Formation ([4]; Tris-HCl 0.8 M pH 7.5): Excellent; Gel Formation ([4]; Tris-HCl 1 M pH 7.5): Excellent
"RASARADARASA (Synthetic self-assembling peptide of the invention) [Peptide No. 7, self-assembling peptide of the present invention]",97,–,–,–,4.1,93,stable for a long period of time without becoming white turbid,–
"RASARADARASARADA (Synthetic self-assembling peptide of the invention) [Peptide No. 1, self-assembling peptide of the present invention]",97,Excellent,formed into gel in various neutral aqueous solutions,Excellent,9.3,88,stable for a long period of time without becoming white turbid,Gel Formation ([4]; D-MEM/F12(1:1) Medium pH 7.5): Excellent; Gel Formation ([4]; Tris-HCl 0.05 M pH 7.5): Excellent; Gel Formation ([4]; Tris-HCl 0.2 M pH 7.5): Excellent; Gel Formation ([4]; Tris-HCl 0.4 M pH 7.5): Excellent; Gel Formation ([4]; Tris-HCl 0.6 M pH 7.5): Excellent; Gel Formation ([4]; Tris-HCl 0.8 M pH 7.5): Excellent; Gel Formation ([4]; Tris-HCl 1 M pH 7.5): Excellent
"RASARASARASARADA (Synthetic self-assembling peptide of the invention) [Peptide No. 6, self-assembling peptide of the present invention]",97,–,formed into gel in various neutral aqueous solutions,Excellent,6.2,91,stable for a long period of time without becoming white turbid,–
"RFDFRFDFRFDFRFDF (Synthetic peptide which is not a peptide of the invention) [compound 11, comparative peptide, which is not self-assembling peptide of the present invention; charge at pH 7.0 is 0, reference compound]",–,Poor,did not form into gel in a neutral aqueous solution,–,–,–,–,–
"SAEAKAEASAEAKAEA (Synthetic self-assembling peptide of the invention) [Peptide No. 9, self-assembling peptide of the present invention]",93,–,–,–,–,–,–,–
